assay: soluble on expression in E. coli; label from the status in PepcDB or PDB records

**Q.** With “LLLFFPLGLQQPLLLLLSPPFQHEIQRRKEEIKEEKKRKEMAKQERLEIASLSNQDHTSKKDPGGHRTAAILHGGSPDFVGNGKHRANSSGRSRRERQYSVCNSEDSPGSCEILYFNMGSPDQLMVHKGKCIGSDEQLGKLVYNALETATGGFVLLYEWVLQWQKKMGPFLTSQEKEKIDKCKKQIQGTETEFNSLVKLSHPNVVRYLAMNLKEQDDSIVVDILVEHISGVSLAAHLSHSGPIPVHQLRRYTAQLLSGLDYLHSNSVVHKVLSASNVLVDAEGTVKITDYSISKRLADICKEDVFEQTRVRFSDNALPYKTGKKGDVWRLGLLLLSLSQGQECGEYPVTIPSDLPADFQDFLKKCVCLDDKERWSPQQLLKHSFINPQPKMPLVEQSPEDSGGQDYVETVIPSNRLPSAAFFSETQRQFSRYFIEFEELQLLGKGAFGAVIKVQNKLDGCCYAVKRIPINPASRQFRRIKGEVTLLSRLHHENIVRYYNAWIERHERPAGPGTPPPDSGPLAKDDRAARGQPASDTDGLDSVEAAAPPPILSSSVEWSTSGERSASARFPATGPGSSDDEDDDEDEHGGVFSQSFLPASDSESDIIFDNEDENSKSQNQDEDCNEKNGCHESEPSVTTEAVHYLYIQMEYCEKSTLRDTIDQGLYRDTVRLWRLFREILDGLAYIHEKGMIHRDLKPVNIFLDSDDHVKIGDFGLATDHLAFSADSKQDDQTGDLIKSDPSGHLTGMVGTALYVSPEVQGSTKSAYNQKVDLFSLGIIFFEMSYHPMVTASERIFVLNQLRDPTSPKFPEDFDDGEHAKQKSVISWLLNHDPAKRPTATELLKSELLPPPQMEESELHEVLHHTLTNVDGKAYRTMMAQIFSQRISPAIDYTYDSDILKGNFSIRTAKMQQHVCETIIRIFKRHGAVQLCTPLLLPRNRQIYEHNEAALFMDHSGMLVMLPFDLRIPFARYVARNNILNLKRYCIERVFRPRKLDRFHPKELLECAFDIVTSTTNSFLPTAEIIYTIYEIIQEFPALQERNYSIYLNHTMLLKAILLHCGIPEDKLSQVYIILYDAVTEKLTRREVEAKFCNLSLSSNSLCRLYKFIEQKGDLQDLMPTINSLIKQKTGIAQLVKYGLKDLEEVVGLLKKLGIKLQVLINLGLVYKVQQHNGIIFQFVAFIKRRQRAVPEILAAGGRYDLLIPQFRGPQALGPVPTAIGVSIAIDKISAAVLNMEESVTISSCDLLVVSVGQMSMSRAINLTQKLWTAGITAEIMYDWSQSQEELQEYCRHHEITYVALVSDKEGSHVKVKSFEKERQTEKRVLETELVDHVLQKLRTKVTDERNGREASDNLAVQNLKGSFSNASGLFEIHGATVVPIVSVLAPEKLSASTRRRYETQVQTRLQTSLANLHQKSSEIEILAVDLPKETILQFLSLEWDADEQAFNTTVKQLLSRLPKQRYLKLVCDEIYNIKVEKKVSVLFLYSYRDDYYRILF” as the sequence, how does the “soluble on expression in E. coli” value read?
**A.** soluble

**Q.** Which “soluble on expression in E. coli” value does the source give for “MGSDKIHHHHHHMFKGIIAALWDMDSIGEIEPDVVFLLKSDILNLKFHLKILKDRGKTVFVDMDFVNGLGEGEEAILFVKKAGADGIITIKPKNYVVAKKNGIPAVLRFFALDSKAVERGIEQIETLGVDVVEVLPGAVAPKVARKIPGRTVIAAGLVETEEEAREILKHVSAISTSSRILWKMKFLP” here?
**A.** soluble

**Q.** With “MTRYLDISLGIVRDYYEAAPVKVVFVKDHPRLPTPGGIINARRGDEVELPRWQARMLREKGYVEYKEKIVDIDYVNLVHYHEVKKSAANSLLGVPSDFYLRVKELVEDLDRRIRENPGYMLFQDRENVERAIMQISERRLVKMMRLVLSGGGEEVRERLTVEENLVYSMAEEVVKGWKEYVKSLVGRR” as the sequence, how does the “soluble on expression in E. coli” value read?
**A.** not soluble

**Q.** Which “soluble on expression in E. coli” value does the source give for “MGSDKIHHHHHHMKQNLTLILMNEAVREGWREWMEKVRKVLPQTDAERPVTWIAAERLAQENGRMVRLVELLREHRPVLSYRVKEEAGLLILVAYHRHGSSSDFLLETAEAYFRERDCGGFLFLCRMQASINAYDEYPHLNVLCNRLAGLLFRFRRERASEYRKGIPPMFSGADLQEVEKYLPHLRGCSFREEIALALPKVKNVEELARECAMSVNTLGRRFKEELNTTPHRWLTEQRKAHVTSLLADTDMPLQEIADVCGFATPSYLWDFCKKHLKATPAEIREIARCARTV” here?
**A.** not soluble

**Q.** With “MAIAPQQIQERLKQEQYQKFVVADIGNFPHCLAQTPEGIASGQRYQKYSTNSLSRTPPFSQWGAPQLLTPKSAQEYIKFAQQRNKKSSFKIDGEAVRVSECSNFAYHSAGVLLDDPQIRTQYDVAVIGSMHSNGRYLHNITLLVPKGSRLPQPPQQLTAEVFPIGTLIVDPWAVGMGHPPEQALAIPKEQFAYNRSLFPATVNYQSALDESLTSTRTGQLTPYTGTPSRTGRQEVRAESQFPGTRRPVSATIPGNFAAYHELWRNAFQEIMNDPRHQLHRNDVEYKKIHAIRTVLDDYTKGGNTWWAKFRRIFTFHWNRHHVKVVDDIVKEIDAGNYTTSRALVDRLDNLAISLGSKLNPKGTLKEQIGFIKIQEQNPVEEIENLSRPNLT” as the sequence, how does the “soluble on expression in E. coli” value read?
**A.** not soluble

**Q.** Which “soluble on expression in E. coli” value does the source give for “EWVAPTLSQKAENIKAAAINGKISTGNTGLWLKEKNSIINVREMLPDHTLLGIKIWARNDKNELAEAVEADSAVLNSDGSWQLKNIRRSTLGEDKVEVSIAAEENWPISVKRNLMDVLLVKPDQMSVGELTTYIRHLQNNSQNTRIYAIAWWRK” here?
**A.** not soluble

**Q.** Which “soluble on expression in E. coli” value does the source give for “MGSDKIHHHHHHMYRIRVFGDPVLRKRAKPVTKFDENLKKTIERMIETMYHYDGVGLAAPQVGISQRFFVMDVGNGPVAVINPEILEIDPETEVAEEGCLSFPEIFVEIERSKRIKVKYQNTRGEYVEEELEGYAARVFQHEFDHLNGVLIIDRISPAKRLLLRKKLMDIARTVKR” here?
**A.** soluble

**Q.** Which “soluble on expression in E. coli” value does the source give for “MSLLGAAESTLEFYDLSHPWGHGAPAWPYFEDVQIERLHGMAKSRVLTQKITTVMHSGTHIDAPAHVVEGTPFLDEIPLSAFFGTGVVVSIPKGKWGMVTAEDLQNATPDIRPGDIVVVNTGWHHKYADSAEYYAYSPGFDKKAGEWFAAKGVKAVGTDTQALDHPLATAIAPHSPAEAQGGLLPWAVREYEAQTGRKVLDDFPDWEPCHRAILSQGIYGFENVGGDLDKVTGKRVTFAAFPWRWVGGDGCIVRLVAIVDPTGSYRIETGKAVEGHHHHHH” here?
**A.** soluble

**Q.** For “MSLRGLRGRSFTIGVLLIDIRNPFLPEVIAGVNEVLGPSHYQAMIGVSDARVQLETSLIESMIDYKMDGLILVAPRLPSEILATFAVQIPIVAVGYHDASATAFDTVNAE”, which “soluble on expression in E. coli” value is on record?
**A.** soluble

**Q.** With “GGAFTWDTDFNISFNRNKLTKLELQKVYYDAKTADVVNDYVVRNEPGRALGGFYGYISDGVDPETGELMYRDLSGDGKISTSDRTYIGDPNPDFTYGLTNTFSWKGFNLSVFIQGSYGNDIFNASRIETEGMYDGKNQSTKVLNRWKIPGQITNVPKANFKLLNSTYFIEDGSYLRLKDVSLSYNFKGKLLQKWGITRLQPYFTATNLLTWTSYSGMDPEVNQWGNSGTVQGIDWGTYPHSRSYVFGINVEF” as the sequence, how does the “soluble on expression in E. coli” value read?
**A.** not soluble

**Q.** Which “soluble on expression in E. coli” value does the source give for “MDFLERLKSLWPDNAKPADFYNKIDMSASGFSRVWKDGAIPTADYLIKIQEVTGCDLNWLLTGQGSPYMNKGQAVEVRTHTDGTATDTLGNP” here?
**A.** not soluble

**Q.** Which “soluble on expression in E. coli” value does the source give for “MPKKILFTGGGTVGHVTLNLILIPKFIKDGWEVHYIGDKNGIEHTEIEKSGLDVTFHAIATGKLRRYFSWQNLADVFKVALGLLQSLFIVAKLRPQALFSKGGFVSVPPVVAAKLLGKPVFIHESDRSMGLANKIAYKFATTMYTTFEQEDQLSKVKHLGAVTKVFKDANQMPESTQLEAVKEYFSRDLKTLLFIGGSAGAHVFN” here?
**A.** not soluble

**Q.** Which “soluble on expression in E. coli” value does the source give for “MGSDKIHHHHHHMILFAGDPHGSYSHLYPFIQEHANVSLIILGDLQLTTSDELDKLAQFCDLWFIHGNHDSKTVSAYEALWGTKWKSRNLHGKVVDIQGIKIAGLGGVFRGQIWMPPNKPLFFDHIHYCQYAPPEKIWRGGIPLRHRTSIFPSDIEALEKQKADILICHEAPKPHPLGFSVINNLATSMQVKHIFHGHHHESFDYTKRPNKNPFKITNVGFRSLCNINGNFLLIGIDDRE” here?
**A.** not soluble

**Q.** Which “soluble on expression in E. coli” value does the source give for “MAHHHHHHMHNVYNIFRQGQKRTYMTTALDRKIREVPYLSRYVILEKLKKKPRYMSECVGTPRRAYDYNTFDKIRYKPTFNPYVHLNKDKKYRLDNWKSRDHENFDPLKCYVRGSRKSYDIPYAILPTKDELGMFHPPILSGRYKADIEKQYYMHDLPWVWHKNFYTGTSHFCDNMVIGKKKWYRKEQQNEKMKESMKKINNLVLEYREECKNKKRYNFLEKVVNTLGDEIAHKYIRKIKNIYL” here?
**A.** not soluble

**Q.** With “MLVAPFASQLPFVEETLHSSYQALQWGKNIFAIAHKTLSARLLNTVFPTEERTQPLSPELQAWLKERYEALLQQDWQDAAAGFYPATLLFDAPWEEFLRFYPLLLLDLPQMWQRARSRQFQEFAHNVRLEDYPQYYRQNFHYQTDGYLSDTSANLYDIQVELLFGGTADAMRRRVIAPIAQQVVAHPPTPPLRILDVACGTGRTLKQLRYAFPGAVLFGLDLSPAYLRKANALLATQTGALPQLIQGNAESLPYVDSYFSAITCVFLFHELPAPVRQNVIHECARVLQPGGIFVICDSIQSLDSPEQRPMMENFANLFHEPFYRNYIEDDLNLRLEKAGLVVKEVQHHFMSKYWVAVKPSLEHHHHHH” as the sequence, how does the “soluble on expression in E. coli” value read?
**A.** not soluble

**Q.** Which “soluble on expression in E. coli” value does the source give for “KKTVRRILGVVEIGGSGENITKTELFKYDGISDSVVKTGICMWEEDVCQIAGITRDELMDDRINRKKVLKYMVNNNINDIRKVGDVLKQYQENPENVLKNIL” here?
**A.** not soluble

**Q.** For “MKLMQIRKPLLKSSLLDQNLTEEEVNMKFVQDLLNWVDEMQVQLDRTEWGSDLPSVESHLENHKNVHRAIEEFESSLKEAKISEIQMTAPLKLSYTDKLHRLESQYAKLLNTSRNQERHLDTLHNFVTRATNELIWLNEKEESEVAYDWSERNSSVARKKSYHAELMRELEQKEESIKAVQEIAEQLLLENHPARLTIEAYRAAMQTQWSWILQLCQCVEQHIQE”, which “soluble on expression in E. coli” value is on record?
**A.** soluble

**Q.** Which “soluble on expression in E. coli” value does the source give for “MSLTMNSEDKFKILQIADLHFSTGYGKCLDPQPPSSAKGCKADSRTLEFINKVLDLEKPDMVVLTGDQIFGDASPDLESSAFKALNPFVERKIPFAITVGNHDDEGSLKREEIMGLYADMPYSVAAMGPASIDGFGNYVVTVQGKSSKATALSLYFVDSHAYSKTPKVTPGYDWIKENQLIYLKQEAESIQNSVEKYRKSNKIPLAMAFFHIPLPEFRNLNQPFIGENREGVTAPRYNSGARQVLSEIGVSVASVGHDHCNDYCLQDTQQSLSPGDNKMWLCFGGGAGLGGYGGYNGYIRRMRVYELDTSKGEIKTWKRTEDNPGNIIDEQVLVSNGDVVNEGHHHHHH” here?
**A.** soluble

**Q.** For “MGSDKIHHHHHHMIVALIIHRPLTKRQKMVAYDVEQLEGKVRGALLQGTNSGKTGVIVLGGSSGRVDTTRAGLFANTGARALALQWFGGANQPPGICEIPLETFVDATDLLISRGCDRTVFVGTSKGAEAALLASTIDHRINVVIAISPSSVVLGNIGAGVDGISWPERSSWSFKRSPLDFVPADINWQKDYRDGLVSYRSFFEKCLSNDVQLNERARIPVESSPADLILVAGGDDALWPSGYFARQILQSRQAHGRQATLIFDKDAGHRILLPGETTQRSKLHAHGGSDEADAKLGQNAWRAIRELL”, which “soluble on expression in E. coli” value is on record?
**A.** not soluble

**Q.** With “MGIFSRFADIVNSNISALLDKAEDPEKMIRLIIQEMEDTLVEVRTNSAKAIADKKELARKVEMLEEQIGEWGQKASLALVKEREDLARAALIEKQKLEQVVKGLHTEQTLVEETINKLTGEIGKLENKIAETRAKQQALAIRNQTASNRRDVQKHLHTSRTNEAMAKFDQYSRKIDEMEAEADLYAQTGNAKSLEQEFAELQAQDEIEKELAKLKEQMSSQDKLEHHHHHH” as the sequence, how does the “soluble on expression in E. coli” value read?
**A.** soluble

**Q.** For “AIAANQWERFVWLALDAPDTIVERAPLVIQVAWLEDTQLRLWEPAAREPLKRGDDAALRTYLRDAAECPWDPATDPSLVREFLLSRAVDCAFRDELAEHAGCVVDEELDTDFIAETMALSEELVRADDKKLPLETQDLDPASFDLLRAELALPAASAREVLRAGAHWAITRWPPREQWLPPCSRADAPATTALAATGGVPSEAQATPEPMCTETTVSDATCALPSGVYAQLQRIGRQLHNEELLYTQHLLNAALERAQTMTANPRTEARLGRVGH”, which “soluble on expression in E. coli” value is on record?
**A.** soluble

From the DeepSol protein solubility set
